# Where no end group is shown, it is not given here.
# B1: Vacc-4x: four synthetic peptides (Vacc-10, Vacc-11, Vacc-12, Vacc-13 acetate) corresponding to conserved domains on HIV-1 p24; SEQ ID NOs 3, 6, 11, 18 (peptide)
# chain 1: APTRAKRRVVQREKRAV
# chain 2: DRPEGIEEEGGERDR
# chain 3: QLLLNGSLAEEEIVI
# chain 4: GGAKRRVVGGAKRRVVGGQREKR
# modifications: also: acetate salts
# How the values were obtained:
# [1] = Osmolality of reconstituted Vacc-4x drug product; type: physicochemical
# Procedure: The range of 10-100 mOsm/kg was defined based on the result obtained for the technical sample. Potential variability due to the four peptides is taken into account. For the drug product, approximately 1 mg of each of the four Vacc-4x peptides was used. The lyophilisate is reconstituted with 0.30 mL of WFI. Taking the acetic acid contents of the peptides listed in table 1 into account, the acetic acid content of Vacc-4x is approximately 0.40 mg in 0.30 mL of solution. The theoretical osmolality is approximately 23 mOsmol/L by calculation, which correlates well with the values determined in the Vacc-4x batches (20-23 mOsmol/kg).
# HIV positive subjects = test: Phase II dose-finding study CTN B-HIV 2/2001; type: in vivo, human
# Procedure: The Phase II dose-finding study (CTN B-HIV 2/2001) enrolled 40 HIV positive subjects, of which 38 completed the trial. Subjects were maintained on ART and treated with 10 immunizations at a dose of 0.4 mg (20 subjects) or 1.2 mg (20 subjects) per Vacc 4x injection, over a period of 26 weeks. Immunizations with Vacc 4x were performed following injection of rhu-GM-CSF (Leucomax [molgramostim]) as a local adjuvant. ART was interrupted from Week 26 to Week 30 to allow exposure to the subject's own virus (autologous immunization). ART was resumed from Week 30 to Week 38 to allow maturation of immune responses to the Vacc 4x peptides and to the subject's own virus. ART was discontinued from Week 38 to Week 52 when the study was formally concluded. […] One subject experienced a transient vasovagal reaction in conjunction with immunization and the DTH test at Week 26 and Week 38. A second subject experienced a vasovagal reaction in conjunction with the DTH test at Week 52. For the laboratory parameters, vital signs, and performance status, no changes attributable to immunization were observed.
# The dose-dependent differences in DTH reactions were maintained throughout the study. […] ART was interrupted at Week 38 with planned restart when CD4 counts fell to less than 200/μL or when AIDS- or HIV related events were observed (i.e. clinical practice).
# However, 14 weeks after the last interruption of ART (Week 52), the mean CD4 counts were still above 200×10^6 cells/L. No difference between the LD and the HD groups was observed. The majority of subjects remained off ART following completion of the study (Week 52); permission was given to follow the subjects until they resumed ART. The duration of treatment interruption was linked to immune responsiveness to the peptides. […] The median treatment interruption achieved for all the subjects that participated in the Vacc-4x Phase II clinical study was 31 months.
# [2] = 0.4 mg/injection, 12 immunizations
molecule,measurement,setting,value
B1,theoretical osmolality,"[1]; by calculation, approx. 0.40 mg acetic acid in 0.30 mL",approximately 23 mOsmol/L
same,osmolality determined in the Vacc-4x batches,"[1]; lyophilisate, approx. 1 mg of each peptide, reconstituted with 0.30 mL WFI",20-23 mOsmol/kg
same,subjects with treatment-related AEs,HIV positive subjects; 0.4 mg group (20 subjects),8 subjects
same,DTH positive reactions,HIV positive subjects; 0.4 mg or 1.2 mg per injection,observed for all subjects
same,SAEs during the period of immunization,HIV positive subjects; 0.4 mg or 1.2 mg per injection,No SAEs were reported
same,subjects with treatment-related AEs,HIV positive subjects; 1.2 mg group (20 subjects),12 subjects
same,"DTH positive responses (induration and erythema), high dose versus low dose",HIV positive subjects; 1.2 mg versus 0.4 mg,statistically significantly higher in the high dose
same,median treatment interruption,"HIV positive subjects; all subjects of the Phase II study, off ART",31 months
same,subjects with treatment-related AEs,"HIV positive subjects; both dose groups, 40 subjects, 10 immunizations over 26 weeks",20 subjects
same,decline in CD4 cells versus similar subjects who stopped treatment without Vacc-4x,HIV positive subjects; comparison with subjects in the Netherlands,significantly slower decline in CD4 cells
same,CD4 counts during the immunization period,HIV positive subjects; on ART,stable or increased
same,serious adverse events,HIV-positive subjects; [2],no serious adverse events (SAEs) occurred
same,severity of adverse reactions,HIV-positive subjects; [2],mild or moderate in severity except for severe local reactions in one subject
same,antibody response to Vacc-4x peptides,HIV-positive subjects; 11 subjects,no antibody response
same,cell-mediated immune response by delayed-type hypersensitivity (DTH) skin reaction,HIV-positive subjects; 11 subjects,All subjects experienced a cell-mediated immune response
same,subjects with cell-mediated immune response by γ IFN release ELISPOT,HIV-positive subjects; 11 subjects,45 % of the subjects
same,treatment related fatigue-vertigo,HIV-positive subjects; 11 subjects,four
same,treatment related influenza-like symptoms,HIV-positive subjects; 11 subjects,two
same,treatment related irritated skin at injection site,HIV-positive subjects; 11 subjects,two
same,treatment related painful injection,HIV-positive subjects; 11 subjects,seven
same,subjects with events judged related to treatment,"HIV-positive subjects; 11 subjects, 0.4 mg/injection, 12 immunizations",nine
same,subjects with one or more adverse events,"HIV-positive subjects; 11 subjects, 12 immunizations of 0.4 mg/injection over 26 weeks, rhu-GM-CSF adjuvant",All subjects experienced one or more adverse events
